# Reference: US7611721B1, “Adjuvant combination formulations” (priority 2000, dated 2009)
# Read-outs that look alike come from different tables or passages of the source.
# How the values were obtained:
# [1] = test system: Neisseria gonorrhoeae Porin B protein; assay: Vaginal wash anti-Porin B protein IgG and IgA titers; assay type: in vivo, Swiss-Webster mice; conditions: Experiment 11; Swiss-Webster; starting dilution 1/5
# Procedure: (§1) Outbred Swiss-Webster mice were divided into six groups of five mice each. Each group received 1 μg of recombinant Porin B protein (from strain FA1090 with 16 amino acids at the amino-terminus from a phage, followed by the mature form of the Porin B protein). […] Mice were immunized subcutaneously in the rump with a total volume of 0.2 ml. Immunizations were administered at week 0 and week 4.
# (§2) Mice were bled the day prior to each immunization, and at 13 days after the final immunization. Serum was analyzed from pools from mice within groups. […] All day 0 pre-immunization titers were less than 50. The starting dilution for vaginal lavage analysis was 1/5.
# [2] = test system: T1SP10MN(A) (−Cys)
# Procedure: Mice were immunized subcutaneously in the rump, in a total volume of 0.2 ml equally divided on each side of the tail. Immunizations were administered at varying time intervals, as indicated below. Antigen and cytokines were diluted in phosphate buffered saline to the appropriate concentrations and formulated with adjuvants less than 16 hours prior to immunization, under sterile conditions. Vaccines were mixed by gentle agitation, and stored at 4° C. Formulations were mixed by vortex immediately prior to immunization.
# Reciprocal anti-HIV peptide-specific IgG endpoint titers were measured from pooled serum (n=5 Balb/c) at the indicated time points after initial immunization. Mice were immunized subcutaneously in the rump with 25 μg of T1SP10MN(A) (−Cys), unless otherwise indicated, on day 0, and on day 27. For recipients of Freund's adjuvants, mice were primed with peptide emulsified in CFA, and boosted with IFA. MPL™ SE was provided as an emulsion containing 2% squalene oil and 50 μg MPL™ per dose. SE is an oil-in-water emulsion vehicle consisting of squalene, glycerol, and an emulsifying agent. Recombinant murine IL-12 was delivered at 50 ng/mouse. Recombinant murine GM-CSF was delivered at 10 μg/mouse.
# Reciprocal endpoint IgG subclass titers were measured from pooled serum (n=5 Balb/c) six weeks after initial immunization, two weeks after secondary immunization. Mice were immunized subcutaneously in the rump with 25 μg of peptide, unless otherwise indicated. For recipients of Freund's adjuvants, mice were primed with peptide emulsified in complete Freund's adjuvant, and boosted with incomplete Freund's adjuvant on weeks four and six. MPL™ SE was provided as an emulsion containing 2% squalene oil and 50 μg MPL™ per dose. SE is an oil-in-water emulsion vehicle consisting of squalene, glycerol, and an emulsifying agent. Recombinant murine IL-12 was delivered at 50 ng/mouse. Recombinant murine GM-CSF was delivered at 10 μg/mouse.
# Mice were immunized subcutaneously in the rump, in a total volume of 0.2 ml equally divided on each side of the tail. Immunizations were administered on days 0 and 21 with 25 μg of the HIV peptide, together with the indicated amount of adjuvant(s).
# Reciprocal anti-peptide IgG endpoint titers were measured from either geometric means from individual mice (GMT) or from pooled serum (n=5 Balb/c), obtained 14 days after the second immunization. IgG1 and IgG2a subclass endpoint titers were also measured from pooled serum.
# [3] = test system: Neisseria gonorrhoeae Porin B protein; assay: Reciprocal anti-Porin B protein serum IgG endpoint subclass titers; assay type: in vivo, Swiss-Webster mice; conditions: Experiment 11; pooled serum n=5 Swiss-Webster; 1 μg Porin B s.c. week 0 and 4
# Procedure: Outbred Swiss-Webster mice were divided into five groups of ten mice each. Each group received 1 μg of recombinant Porin B protein (from strain FA1090 with 16 amino acids at the amino-terminus from a phage, followed by the mature form of the Porin B protein). […] Mice were immunized subcutaneously in the rump with a total volume of 0.2 ml, divided equally into each of two sites at the base of the tail/rump. Immunizations were administered at week 0 and week 4.
# Mice were bled the day prior to each immunization, and at 13 days after the final immunization. Serum was analyzed from pools from mice within groups. […] All day 0 pre-immunization titers were less than 50.
# Individual week 6 IgG titer geometric means against the recombinant Porin B protein were also determined.
# as §1, §2
# [4] = test system: T1SP10MN(A) (−Cys); remark: listed apart in the source
# Procedure: Animals were bled prior to initial immunization, and at indicated time points. Serum was analyzed from individual mice, or as pools from mice within groups. Vaginal lavage was performed on euthanized mice to assess antibody levels. This was accomplished by instillation of 75:1 RPMI-10 into the vaginal vault of female mice using a 200:1 pipette. The vault was washed by repeated delivery and removal of fluid, which was then added to 10:1 of FBS. Vaginal lavage were analyzed as pools.
# For analysis of HIV peptide-specific antibody and subclass distribution, peptide was suspended in either carbonate buffer (15 mM Na2CO3, 35 mM NaHCO3, pH 9.6), or PBS, at a concentration of 1 μg/ml and plated to 96 well microtiter plates (Nunc) in a volume of 100:1. After overnight incubation at 37° C., plates were washed, and blocked (0.1% gelatin/PBS) at room temperature for 2-4 hours. ELISA plates were washed with wash buffer (PBS, 0.1% Tween™20) before addition of serially diluted serum (PBS, 0.1% gelatin, 0.05% Tween™20, 0.02% sodium azide). After a four hour incubation, wells were washed and appropriate dilutions of biotinylated anti-isotype/subclass antibodies were added for incubation at 4° C. overnight. Wells were washed and incubated with strepavidin-conjugated horseradish peroxidase. After incubation, wells were washed, and developed with ABTS. Wells were read at 405 nm. Titers were standardized using control sera.
# Vaginal IgG and IgA anti-peptide antibody titers were measured from lavage obtained 2 weeks after final immunization. Groups of 5 Balb/c female mice were immunized with 25 μg T1SP10MN(A) (−Cys) and the indicated adjuvant formulations on days 0, 28, and 42. Vaginal antibody titers were determined from pool d lavage fluid.
# HIV peptide-specific vaginal lavage endpoint reciprocal endpoint IgG and IgA antibody titers were measured from pooled serum (n=5 Balb/c) 15 days after secondary immunization. […] Aqueous MPL™ was delivered at 50 μg per dose. Recombinant murine IL-12 was delivered at 40 ng/mouse. Recombinant murine GM-CSF was delivered at 10 μg/mouse.
# Vaginal IgG and IgA anti-peptide antibody titers were measured from lavage 41 days after initial immunization, 13 days after secondary immunization.
# [5] = test system: RSV F protein; conditions: Experiment 14; pooled serum n=5 Balb/c; 3 μg F protein s.c. week 0 and 4
# [6] = Experiment 1, pooled serum n=5 Balb/c, 25 μg peptide s.c. day 0 and 27
# [7] = Experiment 1, pooled serum n=5 Balb/c, six weeks after initial, two weeks after secondary immunization, 25 μg peptide
# [8] = Experiment 2, pooled serum n=5 Balb/c, 14 days after second immunization
# [9] = Experiment 4, individual Balb/c mouse, day 41, 13 days after secondary immunization (days 0 and 28)
# [10] = Experiment 4, pooled serum n=5 Balb/c, day 41, 13 days after secondary immunization
# [11] = Experiment 1, pooled lavage, 5 Balb/c, immunized days 0, 28, 42, 2 weeks after final immunization
# [12] = Experiment 2, pooled, n=5 Balb/c, 15 days after secondary immunization
# [13] = Experiment 4, Balb/c, day 41, 13 days after secondary immunization
# Sequence of RSV F protein (P03420 137-574): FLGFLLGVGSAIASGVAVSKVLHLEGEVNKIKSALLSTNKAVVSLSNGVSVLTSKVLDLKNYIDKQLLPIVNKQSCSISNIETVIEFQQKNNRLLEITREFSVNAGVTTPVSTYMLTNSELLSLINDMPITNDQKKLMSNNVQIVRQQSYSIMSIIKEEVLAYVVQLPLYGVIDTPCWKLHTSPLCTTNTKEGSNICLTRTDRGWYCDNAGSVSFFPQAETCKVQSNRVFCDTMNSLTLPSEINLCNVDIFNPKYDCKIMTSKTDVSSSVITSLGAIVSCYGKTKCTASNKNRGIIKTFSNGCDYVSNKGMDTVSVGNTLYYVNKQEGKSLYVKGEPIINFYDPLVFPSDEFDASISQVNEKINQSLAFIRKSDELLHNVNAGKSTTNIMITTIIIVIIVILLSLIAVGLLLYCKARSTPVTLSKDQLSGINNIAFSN
molecule,measurement,setting,value
"rIL-12: Recombinantly expressed murine IL-12 (Genetics Institute) (protein, UniProt P43431 23-215; P43432 23-335, looked up) Interleukin-12 subunit alpha: RVIPVSGPARCLSQSRNLLKTTDDMVKTAREKLKHYSCTAEDIDHEDITRDQTSTLKTCLPLELHKNESCLATRETSSTTRGSCLPPQKTSLMMTLCLGSIYEDLKMYQTEFQAINAALQNHNHQQIILDKGMLVAIDELMQSLNHNGETLRQKPPVGEADPYRVKMKLCILLHAFSTRVVTINRVMGYLSSA Interleukin-12 subunit beta: MWELEKDVYVVEVDWTPDAPGETVNLTCDTPEEDDITWTSDQRHGVIGSGKTLTITVKEFLDAGQYTCHKGGETLSHSHLLLHKKENGIWSTEILKNFKNKTFLKCEAPNYSGRFTCSWLVQRNMDLKFNIKSSSSSPDSRAVTCGMASLSAEKVTLDQRDYEKYSVSCQEDVTCPTAEETLPIELALEARQQNKYENYSTSFFIRDIIKPDPPKNLQMKPLKNSQVEVSWEYPDSWSTPHSYFSLKFFVRIQRKKEKMKETEEGCNQKGAFLVEKTSTEVQCKGGNVCVQAQDRYYNSSCSKWACVPCRVRS","Vaginal Wash IgA titer, anti-Porin B Protein",[1],5
same,"Vaginal Wash IgG titer, anti-Porin B Protein",[1],93
same,"Reciprocal anti-T1SP10MN(A) (-Cys) IgG endpoint titer, WEEK 4",[2]; [6],<100
same,"Reciprocal anti-T1SP10MN(A) (-Cys) IgG endpoint titer, WEEK 6",[2]; [6],<100
same,"Reciprocal anti-T1SP10MN(A) (-Cys) IgG endpoint titer, WEEK 8",[2]; [6],<100
same,Reciprocal anti-T1SP10MN(A) (-Cys) IgG1 endpoint titer,[2]; [7],<100
same,Reciprocal anti-T1SP10MN(A) (-Cys) IgG2a endpoint titer,[2]; [7],<100
same,Reciprocal anti-T1SP10MN(A) (-Cys) IgG2b endpoint titer,[2]; [7],<100
same,Reciprocal anti-T1SP10MN(A) (−Cys) IgG (GMT) endpoint titer,"[2]; Experiment 2, geometric mean of individual Balb/c mice, 14 days after second immunization",500
same,Reciprocal anti-T1SP10MN(A) (−Cys) IgG1 (pool) endpoint titer,[2]; [8],<1000
same,Reciprocal anti-T1SP10MN(A) (−Cys) IgG2a (pool) endpoint titer,[2]; [8],<1000
same,Reciprocal anti-T1SP10MN(A) (−Cys) IgG (pool) endpoint titer,"[2]; Experiment 2, pooled serum n=5 Balb/c, immunized days 0 and 21, 14 days after second immunization",<1000
same,"IgG serum titer specific for T1SP10MN(A) (−Cys), Mouse #1",[2]; [9],594
same,"IgG serum titer specific for T1SP10MN(A) (−Cys), Mouse #2",[2]; [9],50
same,"IgG serum titer specific for T1SP10MN(A) (−Cys), Mouse #3",[2]; [9],50
same,"IgG serum titer specific for T1SP10MN(A) (−Cys), Mouse #4",[2]; [9],50
same,"IgG serum titer specific for T1SP10MN(A) (−Cys), Mouse #5",[2]; [9],50
same,"Geometric Mean IgG serum titer specific for T1SP10MN(A) (−Cys), GMT","[2]; Experiment 4, n=5 Balb/c, day 41, 13 days after secondary immunization",82
same,Reciprocal anti-T1SP10MN(A) (−Cys) IgG1 endpoint titer,[2]; [10],<100
same,Reciprocal anti-T1SP10MN(A) (−Cys) IgG2a endpoint titer,[2]; [10],<100
same,Reciprocal anti-T1SP10MN(A) (−Cys) IgG2b endpoint titer,[2]; [10],<100
same,"Reciprocal anti-Porin B Protein IgG1 endpoint titer, Week 3",[3],"2,578"
same,"Reciprocal anti-Porin B Protein IgG1 endpoint titer, Week 6",[3],"6,278"
same,"Reciprocal anti-Porin B Protein IgG2a endpoint titer, Week 3",[3],"2,071"
same,"Reciprocal anti-Porin B Protein IgG2a endpoint titer, Week 6",[3],"58,552"
same,"Reciprocal anti-Porin B Protein IgG endpoint titer, Week 3",[3],"7,266"
same,"Reciprocal anti-Porin B Protein IgG endpoint titer, Week 6",[3],"571,325"
same,Vaginal lavage IgA anti-T1SP10MN(A) (−Cys) antibody titer,[4]; [11],<20
same,Vaginal lavage IgG anti-T1SP10MN(A) (−Cys) antibody titer,[4]; [11],<20
same,Vaginal lavage reciprocal anti-T1SP10MN(A) (−Cys) IgA endpoint titer,[4]; [12],<10
same,Vaginal lavage reciprocal anti-T1SP10MN(A) (−Cys) IgG endpoint titer,[4]; [12],<10
same,Vaginal lavage IgA anti-T1SP10MN(A) (−Cys) antibody titer,[4]; [13],<10
same,Vaginal lavage IgG anti-T1SP10MN(A) (−Cys) antibody titer,[4]; [13],<10
same,"Reciprocal anti-RSV F Protein IgG1 endpoint titer, Week 3",[5],"3,442"
same,"Reciprocal anti-RSV F Protein IgG1 endpoint titer, Week 6",[5],"1,345,099"
same,"Reciprocal anti-RSV F Protein IgG2a endpoint titer, Week 3",[5],500
same,"Reciprocal anti-RSV F Protein IgG2a endpoint titer, Week 6",[5],"65,951"
same,"Reciprocal anti-RSV F Protein IgG endpoint titer, Week 3",[5],"13,557"
same,"Reciprocal anti-RSV F Protein IgG endpoint titer, Week 6",[5],"4,459,059"
